Reference: publication PMC7568338 (Proceedings of the National Academy of Sciences of the …, 2020)
Numbering of substitutions follows the chain as printed.

B1: ^D645CClpA (enzyme, E. coli, UniProt P0ABH9 1-749, looked up)
chain: MLNQELELSLNMAFARAREHRHEFMTVEHLLLALLSNPSAREALEASSVDLVALRQELEAFIEQTTPVLPASEEERDTQPTLSFQRVLQRAVFHVQSSGRNEVTGANVLVAIFSEQESQAAYLLRKHEVSRLDVVNFISHGTRKDEPTQSSDPGSQPNSEEQAGGEERMENFTTNLNQLARVGGIDPLIGREKELERAIQVLSRRRKNNPLLVGESGVGKTAIAEGLAWRIVQGDVPEVMADSTIYSLDIGSLLAGTKYRGDFEKRFKALLKQLEQDTNSILFIDEIHTIIGAGAASGGQVDAANLIKPLLSSGKIRVIGSTTYQEFSNIFEKDRALARRFQKIDITEPSIEETVQIINGLKPKYEAHHDVRYTAKAVRAAVELAVKYINDRHLPDKAIDVIDEAGARARLMPVSKRKKTVNVADIESVVARIARIPEKSVSQSDRDTLKNLGDRLKMLVFGQDKAIEALTEAIKMARAGLGHEHKPVGSFLFAGPTGVGKTEVTVQLSKALGIELLRFDMSEYMERHTVSRLIGAPPGYVGFDQGGLLTDAVIKHPHAVLLLDEIEKAHPDVFNILLQVMDNGTLTDNNGRKADFRNVVLVMTTNAGVRETERKSIGLIHQDNSTDAMEEIKKIFTPEFRNRLCNIIWFDHLSTDVIHQVVDKFIVELQVQLDQKGVSLEVSQEARNWLAEKGYDRAMGARPMARVIQDNLKKPLANELLFGSLVDGGQVTVALDKEKNELTYGFQSA
B2: ^Q709CClpA (enzyme, E. coli, UniProt P0ABH9 1-749, looked up)
chain: B1 chain with C645D, Q709C

Target: the molecule itself
Experiment: SEC

Protein | binding result
B1 | binds
B2 | binds
